Assay results from article PMC10288592.

Biological target: PYCO1(452 to 592) (Phaeodactylum tricornutum)
Test: cryo-EM structure; single particle cryo-EM of the Rubisco–PYCO1(452 to 592) complex

- stoichiometry N: 4
Substance: PYCO1(452 to 592) (domain or fragment)
